For the assay, the target named is T1, GST-His-hnRNP L RRM2 (162-321) (human, UniProt P14866 162-321).
T1 sequence: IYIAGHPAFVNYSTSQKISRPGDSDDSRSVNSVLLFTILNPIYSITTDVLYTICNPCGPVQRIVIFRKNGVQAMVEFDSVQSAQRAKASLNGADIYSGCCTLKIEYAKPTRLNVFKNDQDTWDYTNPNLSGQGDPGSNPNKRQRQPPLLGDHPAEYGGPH
Briefly: pull-down.

B1: FLAG-SETD2 SHI (2114-2263) (domain or fragment)
chain: NKLSTEERRKLFEQEVAQREAQKQQQQMQNLGMTSPLPYDSLGYNAPHHPFAGYPPGYPMQAYVDPSNPNAGKVLLPTPSMDPVCSPAPYDHAQPLVGHSTEPLSAPPPVPVVPHVAAPVEVSSSQYVAQSDGVVHQDSSVAVLPVPAPG
As to B1, the binding result is “binds”.
